Patent publication US7642046B2, “Method for monitoring recruitment of proteins to the intracellular domain of a receptor in intact cells” (priority 2001, dated 2010)
Values belong to the molecule of their own block, whether it stands above or below them.

Target: T1, CD40 (Homo sapiens, UniProt P25942)
T1 construct: expressed in transfected cells; host or cells: HEK 293T
Test: Recruitment assay in intact cells: CD40 and TRAF co-expressed in 293T cells, anti-CD40 capture ELISA of lysate
Type: cell-based
Conditions: for interaction with CD40 when signalosome assembly occurred in an intact cell: co-expressed in 293T cells, versus cell lysate
Protocol: In order monitor TNF receptor associated factor 1 (TRAF1) recruitment to the CD40 receptor, in intact cells, CD40 and TRAF1 encoding plasmids generated as described in example 7) were used to co-transfect the human embryonic kidney 293T cells (HEK293 ATTC CRL-1573 over expressing the T antigen) (DuBridge et al 1987). 2×10^5 cells were seeded at into 3.5 cm dishes grown 16 hours at 37° C. and transfected with 1 μg CD40 expression plasmid and 2 μg of an expression plasmid encoding TRAF by the calcium phosphate method (Kingston et al. 1993). The two expression plasmids, TRAF1 plasmid and CD40 plasmid were used for transfection at a ratio greater than 2:1 respectively in order to saturate all the CD40 molecules produced. Twenty-seven hours after transfection, the cells were detached, washed once with ice cold phosphate buffered saline (PBS) and detergent extracted with
180 μl lysis buffer [phosphate buffered saline (PBS) containing a protease inhibitor cocktail (0.16 mM Pefabloc, 105 IU Aprotinin), 1% Triton X100 and 0.1% Na Azide]. Since CD40 has a tendency for ligand independent signaling when expressed at high levels it was not necessary to activate the receptor with DC40 ligand or mimetic anti CD40 antibodies before lysis. This feature is shared by various members of the TNFR gene family (Boldin et al. 1995, Siegel et al. 2000 and Chan et al. 2000). […]
The recruitment of TRAF to CD40 can be quantitatively measured using the assay described in example 1. […] The CD40 bound TRAF concentration was measured as described in example 1. […] The necessary normalization for sample-to-sample variations in the CD40 expression was calculated with the following formula:
[formula] CD40 concentrations were determined with an ELISA employing a monoclonal antibody (solid phase) and a polyclonal anti CD40 antibody (for detection) both specific for the extracellular domain of the receptor. […]

T1 sequence (P25942 21-277): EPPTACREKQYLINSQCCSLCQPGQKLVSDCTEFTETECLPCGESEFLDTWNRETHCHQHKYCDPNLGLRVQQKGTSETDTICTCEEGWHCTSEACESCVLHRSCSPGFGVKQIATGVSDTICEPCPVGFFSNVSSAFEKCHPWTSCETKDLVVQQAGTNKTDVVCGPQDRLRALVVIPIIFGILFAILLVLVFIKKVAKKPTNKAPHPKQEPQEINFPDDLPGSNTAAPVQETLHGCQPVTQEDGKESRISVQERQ

interaction with CD40 when signalosome assembly occurred in an intact cell: clearly improved sensitivity
B1: TRAF2: TNF receptor associated factor 2, human adaptor protein expressed from pcDNA3 (protein, UniProt Q12933 1-501, looked up)
chain: MAAASVTPPGSLELLQPGFSKTLLGTKLEAKYLCSACRNVLRRPFQAQCGHRYCSFCLASILSSGPQNCAACVHEGIYEEGISILESSSAFPDNAARREVESLPAVCPSDGCTWKGTLKEYESCHEGRCPLMLTECPACKGLVRLGEKERHLEHECPERSLSCRHCRAPCCGADVKAHHEVCPKFPLTCDGCGKKKIPREKFQDHVKTCGKCRVPCRFHAIGCLETVEGEKQQEHEVQWLREHLAMLLSSVLEAKPLLGDQSHAGSELLQRCESLEKKTATFENIVCVLNREVERVAMTAEACSRQHRLDQDKIEALSSKVQQLERSIGLKDLAMADLEQKVLEMEASTYDGVFIWKISDFARKRQEAVAGRIPAIFSPAFYTSRYGYKMCLRIYLNGDGTGRGTHLSLFFVVMKGPNDALLRWPFNQKVTLMLLDQNNREHVIDAFRPDVTSSSFQRPVNDMNIASGCPLFCPVSKMEAKNSYVRDDAIFIKAIVDLTGL
modifications: full-length
notes: TNF receptor associated factor 2, human adaptor protein expressed from pcDNA3

dilution of the original extract up to which recruitment to the CD40 receptor can be detected (CD40 wt co-expressed with TRAF1 in 293T cells, 3 fold serial dilutions of lysate): ≤ 243 fold
interaction with CD40 when signalosome assembly occurred in an intact cell: clearly improved sensitivity
B2: TRAF1: TNF receptor associated factor 1, adaptor protein overexpressed in 293T cells from pcDNA3 (protein, UniProt Q13077 1-416, looked up)
chain: MASSSGSSPRPAPDENEFPFGCPPTVCQDPKEPRALCCAGCLSENPRNGEDQICPKCRGEDLQSISPGSRLRTQEKAHPEVAEAGIGCPFAGVGCSFKGSPQSVQEHEVTSQTSHLNLLLGFMKQWKARLGCGLESGPMALEQNLSDLQLQAAVEVAGDLEVDCYRAPCSESQEELALQHFMKEKLLAELEGKLRVFENIVAVLNKEVEASHLALATSIHQSQLDRERILSLEQRVVELQQTLAQKDQALGKLEQSLRLMEEASFDGTFLWKITNVTRRCHESACGRTVSLFSPAFYTAKYGYKLCLRLYLNGDGTGKRTHLSLFIVIMRGEYDALLPWPFRNKVTFMLLDQNNREHAIDAFRPDLSSASFQRPQSETNVASGCPLFFPLSKLQSPKHAYVKDDTMFLKCIVETST
modifications: full-length
notes: TNF receptor associated factor 1, adaptor protein overexpressed in 293T cells from pcDNA3
